Experimental data from PMC6205234.

B1: Poly (C)18 (ssRNA)
RNA: CCCCCCCCCCCCCCCCCU
B2: Poly (A)18 (ssRNA)
RNA: AAAAAAAAAAAAAAAAAU

Legend:
Test in all cases: fluorescence anisotropy
PABP1 (WT) [1] = biological target: T1, PABP1 (WT) (human, UniProt P11940 1-636)
scPABP1 = scPABP1 (human, UniProt P11940 1-636, C43S;C128S;C132S)
PABP1 (WT) [2] = biological target: T1, PABP1 (WT); remark: listed apart in the source

T1 sequence (P11940 whole entry): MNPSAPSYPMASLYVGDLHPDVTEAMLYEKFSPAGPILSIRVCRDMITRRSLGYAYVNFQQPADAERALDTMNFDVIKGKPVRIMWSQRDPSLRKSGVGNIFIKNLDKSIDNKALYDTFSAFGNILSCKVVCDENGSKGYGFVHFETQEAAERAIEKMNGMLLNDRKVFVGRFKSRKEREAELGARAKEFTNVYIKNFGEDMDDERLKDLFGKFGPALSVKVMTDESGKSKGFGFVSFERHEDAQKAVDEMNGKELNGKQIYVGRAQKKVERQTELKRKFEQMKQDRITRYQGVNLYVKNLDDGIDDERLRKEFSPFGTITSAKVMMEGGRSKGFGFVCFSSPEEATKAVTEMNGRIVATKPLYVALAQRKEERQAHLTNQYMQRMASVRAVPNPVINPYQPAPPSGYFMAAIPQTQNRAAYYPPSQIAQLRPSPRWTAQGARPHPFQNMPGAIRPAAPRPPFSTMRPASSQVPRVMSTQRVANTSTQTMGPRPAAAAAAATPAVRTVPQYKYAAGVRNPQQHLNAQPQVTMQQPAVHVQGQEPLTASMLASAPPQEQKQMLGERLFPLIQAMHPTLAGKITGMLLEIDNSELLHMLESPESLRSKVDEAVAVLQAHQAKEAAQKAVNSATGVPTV
Sequence of scPABP1 (P11940 whole entry C43S/C128S/C132S): as the sequence (P11940 whole entry) above, with C43S, C128S, C132S counted along it

Binder	binding result (PABP1 (WT) [1])	Kd (scPABP1)	Kd (PABP1 (WT) [2])
B1	no binding	–	–
B2	–	5.1 ± 0.6 nM	2 ± 0.5 nM
